Laboratory results published in patent US20240368285A1 (HEFEI TG IMMUNOPHARMA, published 2024).

Biological target: T1, MICA004α3-Fc (human)
T1 construct: also called MICA*004-Fc; domain α3 of MICA-004 Fc fusion protein
Experiment: ELISA on coated MICA*004 α3-Fc (1 µg/ml), HRP anti-human Fab secondary, OD450
Method: After the antibodies were added, signal intensity was used for judging the binding characteristics of the antibodies and MICA and MICB.
The fusion proteins (produced in the Applicant's laboratory; an amino acid sequence of MICA002α3-Fc is as set forth in SEQ ID NO: 22; an amino acid sequence of MICA005α3-Fc is as set forth in SEQ ID NO: 24; an amino acid sequence of MICA008α3-Fc is as set forth in SEQ ID NO: 25; an amino acid sequence of MICA004α3-Fc is as set forth in SEQ ID NO: 23; an amino acid sequence of MICB001α3-Fc is as set forth in SEQ ID NO: 26; and an amino acid sequence of MICB005α3-Fc is as set forth in SEQ ID NO: 27) were diluted to a concentration of 1 μg/ml with PBS and then added into a 96-well plate in a volume of 100 μl/well. The plate was placed at 4° C. overnight. The PBS in the 96-well plate was removed by sucking. After the plate was washed with PBST (that is, PBS having a pH value of 7.2 included 0.1 volume % of Tween 20) for 6 times, PBS containing 10% of BSA was added in a volume of 200 μl/well. The plate was incubated at 37° C. for 2 hours for blocking. The blocking solution was removed. […]

T1 sequence (chain, as listed by the source limits assumed): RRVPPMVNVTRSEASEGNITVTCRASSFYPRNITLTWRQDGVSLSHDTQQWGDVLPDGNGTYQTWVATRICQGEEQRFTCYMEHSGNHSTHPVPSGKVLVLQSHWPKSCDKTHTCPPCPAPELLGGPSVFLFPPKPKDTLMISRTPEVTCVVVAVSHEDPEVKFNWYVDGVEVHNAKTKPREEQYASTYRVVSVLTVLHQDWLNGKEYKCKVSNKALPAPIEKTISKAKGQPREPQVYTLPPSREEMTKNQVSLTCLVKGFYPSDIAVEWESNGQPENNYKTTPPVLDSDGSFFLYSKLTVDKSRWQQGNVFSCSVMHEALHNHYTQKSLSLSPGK

B1: affinity maturation antibody h5A1002 (antibody, V domains shown)
VH: QVQLQESGPGLVKPSETLSLTCTVSGFSLTTYGGHWIRQPPGKGLEWIGMIWTDGWTDYNAAFISRVTISVDTSKNQFSLKLSSVTAADTAVYYCARKGHGYYYAMDYWGQGTLVTVSS
VL: EIVLTQSPGTLSLSPGERATLSCTASSSVSSSYLHWYQQKPGQAPRLLIYSTSNLISGIPDRFSGSGSGTDFTLTISRLEPEDFAVYYCHQYHRSPFTFGQGTKLEIKR
notes: Human IgG1, kappa; also called h5A1002-hIgG1
EC50 (read off the curve): ~70 ng/mL
